Assay results reported in patent US20250197513A1, “OSMR-SPECIFIC MONOCLONAL ANTIBODIES AND METHODS OF THEIR USE” (THE BOARD OF REGENTS OF THE UNIVERSITY OF TEXAS SYSTEM, priority 2021, published 2025).

Tested on: HEYA8 ovarian cancer cells
Assay: In vivo efficacy and survival, intraperitoneal HEYA8-Luc+ ovarian cancer model
Parameters: species or system athymic nude mice
Settings: survival monitored for 100 days; antibody 10 mg/kg twice a week for 5 weeks; OSM 250 ng/kg
Procedure: To test the in vivo efficacy of anti-OSMR antibodies and overall survival efficiency post-treatment, Heya8-Luc+ cells (3×10^4 cells/animal) were intraperitoneally injected into 4-6-week-old athymic female nude mice (Nu/Nu) (Envigo, Madison, WI, USA) with a 27-gauge needle. Mice were monitored for tumor growth by bio-luminescence imaging IVIS100 and after 7 days post injection, randomly divided into 7 mice per group (efficacy testing) and 10 mice per group (survival studies). Mice were treated intraperitoneally twice weekly with Control IgG.
All the antibody clones were given at a concentration 10 mg/kg b.w twice a week for 5 weeks. All mice were euthanized at the end of 5 weeks or when moribund. Tumors were harvested and weighed, total number of tumor nodules and metastasis to distant organs were counted and imaged using IVIS100. The tumors were excised and proceeded for IHC, Western blotting and qPCR. For survival studies, the treatments were stopped after 5 weeks, and survival progression was monitored for a total of 100 days.

B1: OSM: recombinant human oncostatin M, ligand of OSMR, given with control IgG to stimulate tumor growth (protein)
chain: AAIGSCSKEYRVLLGQLQKQTDLMQDTSRLLDPYIRIQGLDVPKLREHCRERPGAFPSEETLRGLGRRGFLQTLNATLGCVLHRLADLEQRLPKAQDLERSGLNIEDLEKLQMARPNILGLRNNIYCMAQLLDNSDTAEPTKAGRGASQPPTPTPASDAFQRKLEGCRFLHGYHRFMHSVGRVFSKWGESPNRSRR
**Q.** How did the median survival turn out when B1 was run?
**A.** 29 days
